In the DeepSol protein solubility set:

assay: soluble on expression in E. coli; label from the status in PepcDB or PDB records

Sequence | soluble on expression in E. coli
MDNVSNVRTGGCHCGAVRFEVTLSDGFDSIRRCTCSYCRMRGAVVAMAEMGGIKILQGEEVLTTYRFHTRAAQHFFCSRCGIYTHHQRRSNQNLYAVNVACLDGVSPFDFTEVPVMDGINHTNDTGQPTRRAGTLRFIASE | not soluble
MSLHQFLLFKIKVPTGSMMPTVEIGDQLFVTKIYNPNNIKRGDIVVFNSDELKEPLLKRVIGLPGEHVEIKSDGSVYINGNKLEEDYVKYQGGKTDMSFDVPSGKFLMLGDNRNNSDDARYWSNPYIDGKDIEAKAQLTVYPFDRIGFVKEGHHHHHH | soluble
MAKVYYEKDVTVNVLKEKKVAIIGYGSQGHAHAQNLRDNGFDVVVGLRKGKSWDKAKEDGFSVYTVAEAAKQADVVMILLPDELQPEVYEEEIAPNLQAGNSLVFAHGFNVHFDQVKPPVNVDVFLVAPKGPGHLVRRTFSEGGAVPALFAVYQDATGVATEKALSYADGIGATRAGVLETTFKEETETDLFGEQAVLCGGVTALVKAGFETLVDAGYQPELAYFECLHELKLIVDLMYEGGLENMRYSVSDTAQWGDFVSGPRVVTEDTKKAMGTVLAEIQDGTFARGWIAEHKAGKPNFYATNEKENEHEIEVVGRKLRGMMPFVQPRVKAGVK | not soluble
MKRPDYRTLQALDAVIRERGFERAAQKLCITQSAVSQRIKQLENMFGQPLLVRTVPPRPTEQGQKLLALLRQVELLEEEWLGDEQTGSTPLLLSLAVNADSLATWLLPALAPVLADSPIRLNLQVEDETRTQERLRRGEVVGAVSIQHQALPSCLVDKLGALDYLFVASKPFAERYFPNGVTRSSLLKAPAVAFDHLDDMHQAFLQQNFDLPPGSVPCHIVNSSEAFVQLARQGTTCCMIPHLQIEKELESGELINLTPGLLQRRMLYWHRFAPESRMMRKVTDALLEYGHKVLRQD | not soluble
MKAPVRVAVTGAAGQIGYSLLFRIAAGEMLGKDQPVILQLLEIPQAMKALEGVVMELEDCAFPLLAGLEATDDPKVAFKDADYALLVGAAPRKAGMERRDLLQVNGKIFTEQGRALAEVAKKDVKVLVVGNPANTNALIAYKNAPGLNPRNFTAMTRLDHNRAKAQLAKKTGTGVDRIRRMTVWGNHSSTMFPDLFHAEVDGRPALELVDMEWYEKVFIPTVAQRGAAIIQARGASSAASAANAAIEHIRDWALGTPEGDWVSMAVPSQGEYGIPEGIVYSFPVTAKDGAYRVVEGLEINEFARKRMEITAQELLDEMEQVKALGLI | soluble
SGKTSQRKQCDCENPSKPCLSTSIPLRMSSYTFKRPVTKITSHLGNEVRYYQWEETFKKPEQACWQKRLQGLQAYSSAGELLSTSDLAKTLKDLTSTDTVASASDTQAASIDITSVPTLESSSHLANMIPEAGPQILCKEFLVTEQDIINQERKVKIARERLAVALIAHKLASEMETVRGSRKANL | soluble
GSHMKETKKAGPIELPEELEAQRQRHNDPRRPPWPLLHQRVVLLREGKGAPEDIALMWEQTKHYYPADWLIPLELTQVLKYSSGKYLQTYVADPDEMRKEVLMQLLNVKYGRVSDPNGGRVNKDVEEIISMAVDDLENMDLNPAADAVLIPTHT | soluble
MSQLPGLSRETRESIAMYHLRVPQTEEELERYYQFRWEMLRKPLHQPKGSERDAWDAMAHHQMVVDEQGNLVAVGRLYINADNEASIRFMAVHPDVQDKGLGTLMAMTLESVARQEGVKRVTCSAREDAVEFFAKLGFVNQGEITTPTTTPIRHFLMIKPVATLDDILHRGDWCAQLQQAWYEHIPLSEKMGVRIQQYTGQKFITTMPETGNQNPHHTLFAGSLFSLATLTGWGLIWLMLRERHLGGTIILADAHIRYSKPISGKPHAVADLGALSGDLDRLARGRKARVQMQVEIFGDETPGAVFEGTYIVLPAKPFGPYEEGGNEEELEHHHHHH | not soluble
MGLDKGKQQTAKKPGFNCKPFEFEISSTKFQIPNDKPLKYTLKCTADEKQDVIIQVHSVFFEIVGARRKHGVTSQEFHVLGKNEEMTFEIGLKDLTNVSYDNFEHAQLASAAGFITFTHYKSSRDDDSDASWGPNKNLLIVITDGMEEVGFWKKKLSVETETDEMKKVKEEFGVKLEGEKKYEEIDKMEMDRMRKEIGKNQSARDDGFAPIKDMHKKYLKEKYECVIS | soluble
MGSDKIHHHHHHMLMRDVIPQVLNRGTAMLTQDLLETPPQKTFHHAIDIYLKDSNAFMNTYFARYFEWQGICRERWFHECIHDNLLAAGGVFVTKRAHQEYVEETFPFQRVDCYLNTFQVKQCSAYLLFRFCVGGKPVSLGYQQIVFADRDKRISRFPHGIIERVKEYELVLPGLAS | not soluble
MKQIKWWLLAVLLVVGLTGCGSQTTKKQATQQAASTKKISPYVNQQTPTFYVHGFQGSAKSTNTLIAHAEKTAHAHKVLVATVSTSGQVTLTGKWRGRVRNPIIQVVFKNNLAQYDQQSAWLAKVITTVQQQHAFKHYNIVAHSAGCVASVNMLMTQQTTTFPKINKLVTIAGPFDGVVGEDDVANQNSFLTSGQPKYLHAAYELLAAKRNNFPKNVQLLNIVGTLNDGSHSDSLVTNVSARSIKYLLRGRDVDYTEKDFYGAHAQHSQLHENAKVALAVDRFLWHR | not soluble
GMDDETLRLQFGHLIRILPTLLEFEKKGYEPSLAEIVKASGVSEKTFFMGLKDRLIRAGLVKEETLSYRVKTLKLTEKGRRLAECLEKCRDVLGS | soluble
MGSDKIHHHHHHMTMPVPHAGPTPLCSNRMQVHSITQETPDVWTISLVNHDFYPYQPGQYALVSIANSEETLRAYTISSSPGLSRFITLTVRRLDDGVGSRWLTQTLKIGDYLWLSDAQGEFTCANAVSDRYLMAAAGCGVTPIMSMCRWLLANKPQIDIHIIFNVRNPQQVIFASEWQDLVQRYPQQLHLTLMAEFDAAPGFLAGRISGDLLVERVPDITNRTVMTCGPAPYMNQIETLSQQLGVASNRIFKEQFRPTDEVVDEDADQITLTISRPLKNLRVPVGISLLAALEANKVHVLAACRAGVCGSCKTRVLSGKYTTTSTMTLTPAEIEQGYVLACSCQLQGDTVLA | not soluble
MKITAIHLYAIRLPLRNPFVISYGSYSDMPSIIVKMETDEGIIGYGEGVADDHVTGESWESTFHTLKHTLTPALIGQNPMNIEKIHDMMDNTIYGVPTAKAAIDIACFDIMGKKLNQPVYQLIGGRYHEEFPVTHVLSIADPENMAEEAASMIQKGYQSFKMKVGTNVKEDVKRIEAVRERVGNDIAIRVDVNQGWKNSANTLTALRSLGHLNIDWIEQPVIADDIDAMAHIRSKTDLPLMIDEGLKSSREMRQIIKLEAADKVNIKLMKCGGIYPAVKLAHQAEMAGIECQVGSMVESSVASSAGFHVAFSKKIITSVELTGPLKFTKDIGNLHYDVPFIRLNEKPGLGIEINEDTLQELTVFQDIVR | soluble
MRHGCHTVIASRSLPRVLTAARKLAGATGRRCLPLSMDVRAPPAVMAAVDQALKEFGRIDILINCAAGNFLCPAGALSFNAFKTVMDIDTSGTFNVSRVLYEKFFRDHGGVIVNITATLGNRGQALQVHAGSAKAAVDAMTRHLAVEWGPQNIRVNSLAPGPISGTEGLRRLGGPQASLSTKVTASPLQRLGNKTEIAHSVLYLASPLASYVTGAVLVADGGAWLTFPNGVKGLPDFASFSAKL | not soluble
MAHHHHHHMMLRRLFVFDAARATNMRFLTMTSEVRDNLTKQLSALKEECRGQGLDLADMSDASRVAMRTVQEGLTRVSVEDEIFKGKSITLSASMKAYTARLSNLQDEARSIQTEVDALLKMMWGTEAPTKAASFASPPRSTEEVGVSSSSAAAAAGGKGNETVDDEFIVEPPPLAKALGNDKRPAERVEAERVQGTAHKPVEEMRVEEIEVETIEVEVEPNESPADNMKITDITRELYERGVNFSDCLDARTLRQRYKDVLAGKISPGISPGTATSSPATAEANTNQPRMPQHRPYQQQQQQQQQQLNTNESGLAHDPYPNAYRKMVDPMKHVWELKNELAAEKGIDPKSVDLWSGKCKLEDHKLLYDYPSVQNYPIEVRQKGDIPR | not soluble
MSLAKHIVELTDALSNKIAAGEVVERPASVVKELVENAIDAGSTVIDILVEEAGLNKITIIDNGSGIEEEDVATAFLRHATSKIKNEADLFRVHTLGFRGEALPSIASVSHLEMETSTGEAKGTTISLEGGKIIEQKSGHARKGTQIEVSQLFFNTPARLKYLKSLPTELGNITDILNRLALAHPDISFRFSHNGKPLLQTNGNGELRQVIAAIYGVSIAKKSVPVKAESLDFKISGYAVLPEVNRSNRNYISTIINGRFIKNFALVKAIQEGYHTLLPIGRFPIIVLQIEMDPIIVDVNVHPAKLEVRLSKEKELGQLISQMIKETFHKLQLIPDGEISKEGHHHHHH | soluble
MNAPIEPHRFILEPFEAHRFANLCGQFDEHLRLIEQRLAIEIRNRGNQFELIGEPRTTSAAEQLLRRLYRETKATDLSPETVHLYLQESAVENIDNPAVNEVSVSLRTRKGNIRPRGLNQQRYVKEILANDINFGIGPAGTGKTYLAVACAVDALEREQVRRILLVRPAVEAGEKLGFLPGDLAQKIDPYLRPLYDALYEMLGFEHVAKLIERQVIEIAPLAYMRGRTLNNSFIILDESQNTTLEQMKMFLTRIGFGSTAVITGDITQVDLPRGTKSGLAHVIEVLKDVPGISFTHFQPKDVVRHPLVQRIVEAYDRFEARQPKPEASGKDA | not soluble
MSSNYATPLDDEVFPLSFANYQFTEHVSLGEHYSLNTSEDAKYNNLNGPFVVPRDTGKFDLNTSSASDETVFSLDNPQENNYKHQAMNNVQDCRMAVAAKTTQSCDKLTDLYANAAQQNYRLWLSSF | not soluble
MGSDKIHHHHHHMDSNIDVEILSILSEASAPVGAKIIADSLKDRGYDIGERAVRYHLKVLDENSLTKKLGYSGREITEKGIEELEKANISFRIGSVFSQVIEKLYLSDFPSKVLINTAKFEGDYKTIKEMVLRSFEAGYSVGDYLNIKKKGNTVSVETLCSITFDNFLLKNGIIPTPEYGGIVKFEDYEPVNFEGVIDFKSSSIDPLVAFIMQGKTDVIGVIENGEGLVPANFRVIPKSSEKQFETILKKDMLNSVLAYGTENVLGMNLNPEQIGVVLVGGLTPLCVPHESGYTADISAATQLKDISSMEKKTKGFLEAKKKKGKFKVTPVLSKMLSKMQTINYDIEDKKGNVVVNTAKIPIEYKEEAINALKDSYENKLAISDRLKVECDDKFLNAYTICSLTVDGVFLKNKIPVIPYYGGILEVKADKKRFIEAIDYEGTSLDPHEVFFNKADGKNYILAGIRKVPMSASEKLIELNEKLGWNSIIEIGRPNNDICGVRVEKCMFGITTIGGTNPFANIRKNNIPVEMKTLHKSIDYSELTHYDDI | not soluble
